{"source": "paper PMC8410055", "molecular_target": "SARS-CoV-2 spike protein expressed on transfected HEK293T cells (UniProt P0DTC2)", "assay": "flow cytometry on cells", "data": [{"substance": "L-SIGN/Fc: extracellular domain of L-SIGN (amino acids 78–399) fused to the human IgG2 Fc domain (from UniProt Q9H2X3) EPN>QPD", "values": [{"measurement": "response (% Fc binding (positive population))", "value": 1.58}]}]}
